This is an account of results in publication PMC7617061.

This series deals with U1-C zinc finger (UniProt P09234). Briefly: NMR titration. Particulars: pseudouridine at U1 strand positions 5 and 6.
Chain of UniProt P09234 (P09234 1-61): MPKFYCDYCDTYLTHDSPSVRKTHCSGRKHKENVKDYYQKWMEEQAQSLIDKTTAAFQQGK

On to “AUACUUACCUG / GGAGUAAGUCU [U1 snRNA 5'-end / SMN2 E7 5'-SS RNA duplex]”, for which the binding signal (fold affinity increase vs no SMN-C5) came to 3.
